Bridge positions count the residues as written; N and C are the ends. Square brackets hold non-standard residues; d marks the D form. Trp(1-Me) = Cn1cc(C[C@H](N)C(=O)O)c2ccccc21; NMeI = CC[C@H](C)[C@H](NC)C(=O)O; Nle = CCCC[C@H](N)C(=O)O; Sar = CNCC(=O)O
Assays:
[1] = target: biotinylated C3b (UniProt P01024); test: SPR, Biacore 3000; biotinylated C3b on streptavidin chip, peptide injected; 1:1 fit
[2] = target: T1, C3 purified from fresh human plasma (human, UniProt P01024 23-1663); test: cell-based or functional assay
[3] = target: biotinylated C3b (UniProt P01024); test: SPR on immobilised C3b; ratio relative to peptide 14
[4] = target: T1, C3 purified from fresh human plasma; test: cell-based or functional assay; remark: listed apart in the source
[5] = target: T1, C3 purified from fresh human plasma; test: cell-based or functional assay; remark: listed apart in the source
[6] = target: T1, C3 purified from fresh human plasma; test: ITC with C3; relative to peptide 14
Protocol: (§1) ITC analysis. All ITC experiments were performed with the Microcal VP-ITC calorimeter (Microcal Inc., Northampton, Mass.), using protein concentrations of 1.8-5 μM C3 in the cell and peptide concentrations of 40-100 μM of individual compstatin analogs in the syringe. All titrations were performed in PBS (10 mM phosphate buffer with 150 mM NaCl, pH 7.4) at 25° C. using multiple peptide injections of 2-7 μL each. The raw isotherms were corrected for the heats of dilution by subtracting the isotherms representing peptide injections into the buffer. The resulting isotherms were fitted to a single site of sites models using Origin 7.0 software, and the model that produced the lowest χ² value was deemed to be appropriate for the respective data set. The Gibbs free energy was calculated as ΔG=ΔH−TΔS. Each experiment was repeated at least twice.
(§2) Characterization of binding thermodynamics.

[7] = target: T1, C3 purified from fresh human plasma; test: ITC; peptide titrated into C3, PBS, 25 C
Protocol: as §1, §2

[8] = target: T1, C3 purified from fresh human plasma; test: cell-based or functional assay; remark: listed apart in the source

T1 sequence (P01024 23-1663): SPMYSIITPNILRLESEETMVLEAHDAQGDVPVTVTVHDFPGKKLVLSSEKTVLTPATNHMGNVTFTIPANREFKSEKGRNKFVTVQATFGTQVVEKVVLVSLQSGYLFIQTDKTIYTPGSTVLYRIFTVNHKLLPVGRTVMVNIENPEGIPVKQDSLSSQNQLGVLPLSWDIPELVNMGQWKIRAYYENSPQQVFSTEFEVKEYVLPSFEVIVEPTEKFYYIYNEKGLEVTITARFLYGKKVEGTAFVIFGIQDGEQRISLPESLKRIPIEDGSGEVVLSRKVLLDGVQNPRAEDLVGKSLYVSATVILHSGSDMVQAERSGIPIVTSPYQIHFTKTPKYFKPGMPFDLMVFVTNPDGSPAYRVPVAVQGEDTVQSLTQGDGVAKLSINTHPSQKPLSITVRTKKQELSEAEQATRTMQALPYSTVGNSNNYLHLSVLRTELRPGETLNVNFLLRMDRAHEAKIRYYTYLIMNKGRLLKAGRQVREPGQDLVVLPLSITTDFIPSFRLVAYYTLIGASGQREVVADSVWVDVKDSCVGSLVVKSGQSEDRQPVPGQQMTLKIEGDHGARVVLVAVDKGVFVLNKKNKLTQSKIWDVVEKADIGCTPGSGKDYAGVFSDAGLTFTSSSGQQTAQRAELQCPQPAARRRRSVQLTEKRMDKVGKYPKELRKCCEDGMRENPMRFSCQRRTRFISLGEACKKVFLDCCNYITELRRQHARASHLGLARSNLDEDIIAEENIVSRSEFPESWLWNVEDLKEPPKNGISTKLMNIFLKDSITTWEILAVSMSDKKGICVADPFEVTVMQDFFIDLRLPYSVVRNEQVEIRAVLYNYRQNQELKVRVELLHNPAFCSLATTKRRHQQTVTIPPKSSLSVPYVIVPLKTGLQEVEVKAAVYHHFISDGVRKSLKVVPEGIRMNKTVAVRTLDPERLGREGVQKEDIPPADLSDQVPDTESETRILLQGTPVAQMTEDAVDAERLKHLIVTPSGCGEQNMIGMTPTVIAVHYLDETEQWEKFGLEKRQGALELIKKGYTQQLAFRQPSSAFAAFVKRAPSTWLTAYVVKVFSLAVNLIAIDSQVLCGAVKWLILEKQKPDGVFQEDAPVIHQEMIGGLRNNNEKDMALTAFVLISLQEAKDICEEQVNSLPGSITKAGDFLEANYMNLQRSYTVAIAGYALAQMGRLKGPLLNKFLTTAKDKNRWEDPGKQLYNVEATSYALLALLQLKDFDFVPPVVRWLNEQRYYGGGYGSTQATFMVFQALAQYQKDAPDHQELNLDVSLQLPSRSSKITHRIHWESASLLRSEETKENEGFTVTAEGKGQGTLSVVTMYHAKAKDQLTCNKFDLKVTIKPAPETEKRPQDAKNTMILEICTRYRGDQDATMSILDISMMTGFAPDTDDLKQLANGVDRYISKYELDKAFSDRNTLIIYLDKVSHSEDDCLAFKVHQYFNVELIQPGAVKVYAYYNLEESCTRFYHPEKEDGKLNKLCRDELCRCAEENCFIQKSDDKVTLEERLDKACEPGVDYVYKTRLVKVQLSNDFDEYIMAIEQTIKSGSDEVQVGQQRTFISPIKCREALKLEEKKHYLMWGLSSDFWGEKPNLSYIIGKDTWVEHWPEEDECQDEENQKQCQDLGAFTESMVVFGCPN

Kd [1] [nM]	koff [1] [s⁻¹]	kon [1] [M⁻¹ s⁻¹]	rP, relative potency compared to peptide 14 [2] [fold]	rKD SPR [3] [fold]	rka [3] [fold]	rkd [3] [fold]	IC50, inhibition of classical pathway complement activation, ELISA [4] [nM]	Fold change in activity (IC50) relative to SEQ ID NO:4 [5] [fold]	-TΔΔS [6] [kcal/mol]	rKD ITC [6] [fold]	ΔΔG [6] [kcal/mol]	ΔΔH [6] [kcal/mol]	-TΔS [7] [kcal/mol]	ΔG [7] [kcal/mol]	ΔH [7] [kcal/mol]	IC50 (nM, CP), inhibition of classical pathway complement activation, ELISA, human serum [8] [nM]	IC50 fold change relative to peptide 17 [8] [fold]	Binder
2.3	0.0035	1.5e+06	3.3	5.2	1.5	3.2	62	3.32	-1.3	3.3	-0.7	0.5	5.7	-11.4	-17.1	–	–	Ac-ICV[Trp(1-Me)]QDW[Sar]AHRC[NMeI]-NH2 (disulfide 2-12; SMILES CC[C@H](C)[C@H](NC(C)=O)C(=O)N[C@H]1CSSC[C@@H](C(=O)N(C)[C@H](C(N)=O)[C@@H](C)CC)NC(=O)[C@H](CCCNC(=N)N)NC(=O)[C@H](Cc2c[nH]cn2)NC(=O)[C@H](C)NC(=O)CN(C)C(=O)[C@H](Cc2c[nH]c3ccccc23)NC(=O)[C@H](CC(=O)O)NC(=O)[C@H](CCC(N)=O)NC(=O)[C@H](Cc2cn(C)c3ccccc23)NC(=O)[C@H](C(C)C)NC1=O, Sar^8, (NMe)Ile^13; also called peptide 21; analog 21) [Ac-Ic[CV(1-MeW)QDW(N-MeG)AHRC](N-MeI)-NH2]
–	–	–	0.8	–	–	–	257	–	–	–	–	–	–	–	–	–	–	Ac-ICV[Trp(1-Me)]QDW[Sar]AHRCF-NH2 (disulfide 2-12; SMILES CC[C@H](C)[C@H](NC(C)=O)C(=O)N[C@H]1CSSC[C@@H](C(=O)N[C@@H](Cc2ccccc2)C(N)=O)NC(=O)[C@H](CCCNC(=N)N)NC(=O)[C@H](Cc2c[nH]cn2)NC(=O)[C@H](C)NC(=O)CN(C)C(=O)[C@H](Cc2c[nH]c3ccccc23)NC(=O)[C@H](CC(=O)O)NC(=O)[C@H](CCC(N)=O)NC(=O)[C@H](Cc2cn(C)c3ccccc23)NC(=O)[C@H](C(C)C)NC1=O) [peptide 23]

The next lines start with the binder.

Binder	Kd [1] [nM]	koff [1] [s⁻¹]	kon [1] [M⁻¹ s⁻¹]	rP, relative potency compared to peptide 14 [2] [fold]	rKD SPR [3] [fold]	rka [3] [fold]	rkd [3] [fold]	IC50, inhibition of classical pathway complement activation, ELISA [4] [nM]	Fold change in activity (IC50) relative to SEQ ID NO:4 [5] [fold]	-TΔΔS [6] [kcal/mol]	rKD ITC [6] [fold]	ΔΔG [6] [kcal/mol]	ΔΔH [6] [kcal/mol]	-TΔS [7] [kcal/mol]	ΔG [7] [kcal/mol]	ΔH [7] [kcal/mol]	IC50 (nM, CP), inhibition of classical pathway complement activation, ELISA, human serum [8] [nM]	IC50 fold change relative to peptide 17 [8] [fold]
Ac-ICV[Trp(1-Me)]QDW[Sar]AHRCI-NH2 (disulfide 2-12; SMILES CC[C@H](C)[C@H](NC(=O)[C@@H]1CSSC[C@H](NC(=O)[C@@H](NC(C)=O)[C@@H](C)CC)C(=O)N[C@@H](C(C)C)C(=O)N[C@@H](Cc2cn(C)c3ccccc23)C(=O)N[C@@H](CCC(N)=O)C(=O)N[C@@H](CC(=O)O)C(=O)N[C@@H](Cc2c[nH]c3ccccc23)C(=O)N(C)CC(=O)N[C@@H](C)C(=O)N[C@@H](Cc2c[nH]cn2)C(=O)N[C@@H](CCCNC(=N)N)C(=O)N1)C(N)=O, Sar^8, Ile^13; also called peptide 17; Ac-Ic[CV(1-MeW)QDW(N-MeG)AHRC]I-NH2) [Ac-Ile-c[Cys-Val-Trp(Me)-Gln-Asp-Trp-Sar-Ala-His-Arg-Cys]-Ile-NH2]	4.4	0.0066	1.5e+06	2.2	2.7	1.5	1.7	92	2.24	-4.1	2.4	-0.5	3.5	2.9	-11.2	-14.1	92	1
Ac-ICV[Trp(1-Me)]QDW[Sar]AHRCL-NH2 (disulfide 2-12; SMILES CC[C@H](C)[C@H](NC(C)=O)C(=O)N[C@H]1CSSC[C@@H](C(=O)N[C@@H](CC(C)C)C(N)=O)NC(=O)[C@H](CCCNC(=N)N)NC(=O)[C@H](Cc2c[nH]cn2)NC(=O)[C@H](C)NC(=O)CN(C)C(=O)[C@H](Cc2c[nH]c3ccccc23)NC(=O)[C@H](CC(=O)O)NC(=O)[C@H](CCC(N)=O)NC(=O)[C@H](Cc2cn(C)c3ccccc23)NC(=O)[C@H](C(C)C)NC1=O) [Ac-Ic[CV(1-MeW)QDW(N-MeG)AHRC]L-NH2]	4.6	0.006	1.3e+06	1.9	2.6	1.3	1.9	108	1.91	–	–	–	–	–	–	–	–	–
Ac-ICV[Trp(1-Me)]QDW[Sar]AHRC[Nle]-NH2 (disulfide 2-12; SMILES CCCC[C@H](NC(=O)[C@@H]1CSSC[C@H](NC(=O)[C@@H](NC(C)=O)[C@@H](C)CC)C(=O)N[C@@H](C(C)C)C(=O)N[C@@H](Cc2cn(C)c3ccccc23)C(=O)N[C@@H](CCC(N)=O)C(=O)N[C@@H](CC(=O)O)C(=O)N[C@@H](Cc2c[nH]c3ccccc23)C(=O)N(C)CC(=O)N[C@@H](C)C(=O)N[C@@H](Cc2c[nH]cn2)C(=O)N[C@@H](CCCNC(=N)N)C(=O)N1)C(N)=O) [Ac-Ic[CV(1-MeW)QDW(N-MeG)AHRC](Nle)-NH2]	4.4	0.0066	1.5e+06	1.9	2.7	1.5	1.7	109	1.9	–	–	–	–	–	–	–	–	–

— US20120178694A1 (University of Pennsylvania, published 2012)
